Results taken from patent US11406709B2, “Therapeutic and research application of PDCL3” (TRUSTEES OF BOSTON UNIVERSITY, priority 2014, dated 2022).

Tests used:
PDCL3 with VEGFR-2 = test: Brefeldin A treatment, co-immunoprecipitation of PDCL3 with VEGFR-2; assay type: cell-based; conditions: HEK-293 cells
Method: FIG. 7A. Cells expressing VEGFR-2 alone or together were subjected cell surface biotinylation. Non-biotinylated and biotinylated fractions were immunoprecipitated with anti-VEGFR-2 antibody and blotted for PDCL3 using anti-c-Myc antibody. Non-biotinylated and biotinylated fractions also were blotted for VEGFR-2 and PARP as a control. FIG. 7B. HEK-293 cells were co-transfected with Myc-tagged PDCL3 and VEGFR-2 and after 48 hours they were treated with BFA or control vehicle. Cells were lysed and whole cell lysates were either blotted for VEGFR-2 or were subjected co-immunoprecipitation using anti-c-Myc antibody followed by immunoblotting with anti-VEGFR-2. FIG. 7C. HEK-293 cells were co-transfected with Myc-tagged PDCL3 and VEGFR-2 and after 48 hours cells were fixed and subjected to IF staining as described in Materials and Method section. Cells were stained with anti-PDCL3, anti-c-myc antibodies (FIGS. 7C-7D) or endoplasmic reticulum specific dye FIG. 7E.

PDCL3 and VEGFR-2 = test: Chemical hypoxia, expression of PDCL3 and VEGFR-2; assay type: cell-based
Source text: To test whether, increased expression of VEGFR-2 in response to hypoxia is linked to induction of PDCL3 expression, we silenced expression of PDCL3 by siRNA and analyzed measured VEGFR-2 levels.

zebrafish embryos = test: Zebrafish angiogenesis assay; assay type: in vivo, zebrafish (Danio rerio); conditions: microinjection into embryos, 28 hpf
Method: The vectors were linearized with Not I restriction enzyme, treated with Proteinase K (SIGMA) and extracted with phenol. Linearized plasmid DNA (1 μg/μl) in RNAse-free water was used for in vitro capped mRNA synthesis using the MMESSAGE MMACHINE® SP6 kit (AMBION) according to manufacturer instructions and RNA subsequently was used to inject into zebrafish embryos.
Fli-eGFP-transgenic adult male and female zebrafish (Danio rerio) were housed in […] light-dark cycle at a temperature of (26.5° C.) and a pH of (7.0-7.4) in a controlled multi-tank recirculating water system (Aquatic Habitats, Apopka, Fla.). Fish were fed twice daily with live brine shrimp (Brine Shrimp Direct, Ogden, Utah) and flake food (TetraMin; Tetra, Blacksburg, Va.). A glass capillary needle attached to a Femtojet injector (EPPENDORF) was used for injecting RNA (10 or 5 ng/μl in approximately 10 pl) into 1- or 2-cell-stage embryos. The embryos were grown at 28° C. for 3 days. The embryos were examined after 28 or 50 hpf using Zeiss immunofluorescence microscope. The images of fish under same setting were obtained for 10 fish per group at every experiment and analyzed for the length of the tail vessels using IMAGE-PRO® software and for the tail vessel plexus fluorescent intensity using Image J software.

PAE cells = test: Capillary tube formation on matrigel; assay type: cell-based, porcine; conditions: over-expression with VEGFR-2 in endothelial cells, 12 hours
Method: (§1) FIG. 6A. Cell lysates from HEK-293 cells co-expressing PDCL3 with VEGFR-2 or HA-PDCL3 with VEGFR-2 were immunoprecipitated with VEGFR-2 and immunoblotted for PDCL3 using anti-Myc antibody. Whole cell lysates was also blotted for VEGFR-2, PDCL3 and HSp70 as a loading control. Ubiquitination of VEGFR-2 was determined by immunoprecipitation with anti-VEGFR-2 followed by immunoblotting with anti-ubiquitin antibody. FIG. 6B. The graph is quantification of the ubiquitination blot of VEGFR-2. FIG. 6C. Angiogenic potential of wild-type and HA-tagged methionine mutant PDCL3 expressed in PAE cells is shown. PAE cells engineered to express VEGFR-2 alone, VEGFR-2 with wild-type PDCL3 or VEGFR-2 with HA-tagged methionine mutant PDCL3. Cells were plated on matrigel and pictures were taken after 12 hours. Image J was used to quantify tube formation. Graph is representative of three independent experiments.

VEGFR-2 [1] = test: Protein aggregation assay (PSA dye), thermo-induced aggregation; assay type: biochemical; conditions: immunoprecipitated VEGFR-2, 45° C.
Method: Aggregation of VEGFR-2 determined using PSA kit purchased from PROFOLDIN, Inc (Hudson, Mass.) and assay was performed according to manufacturer's guideline. […] When the PSA dye binds to the aggregate, it is immobilized and slows down the rotational movement and inducing the dye to fluoresce. In brief, VEGFR-2 immunoprecipitated from HEK-293 cells and eluded from the protein-sepharose beads. The eluded VEGFR-2 protein was incubated in the 45° C. in the presence or absence of purified GST-PDCL3 for various time points. The Fluorescence intensity was measured at […].

[2] = system: VEGFR-1, VEGFR-2 and CSF-1R; test: Receptor expression in HEK-293 cells expressing PDCL3; assay type: cell-based
Method: FIG. 1A. HEK-293 cells expressing VEGFR-2 were transfected with different concentrations of C-terminus Myc-tagged PDCL3. After 48 hours cells were lysed and whole cell lysates (WCL) were blotted for VEGFR-2, PDCL3 and Hsp70 for loading control. Quantification of premature (newly synthesized and partially glycosylated VEGFR-2 corresponding to lower molecular weight) and mature (fully glycosylated) forms of VEGFR-2 is shown. Mean results of three independent experiments are shown. *P=0.04 and […]. FIG. 1B. Human umbilical vein endothelial cells (HUVECs) were transfected with control siRNA or PDCL3-siRNA. After 48 hours cells serum-starved for overnight followed by stimulation with VEGF for 10 minutes. Cells were lysed and whole cell lysates were blotted for phospho-Y1054-VEGFR-2, total VEGFR-2, PDCL3 and Hsp70 for loading control. FIG. 1C. Thermo-induced aggregation of VEGFR-2 was measured using PSA dye as described in the materials and method section. FIG. 1D. In vitro transcription/translation of VEGFR-2 in the absence or presence of exogenous recombinant PDCL3 was performed as described in the materials and method section and schematic of the procedure is shown. FIG. 1E. In vitro translated VEGFR-2 protein in the absence or presence of exogenous recombinant PDCL3 was blotted for VEGFR-2. FIG. 1F. […]

VEGFR-2 [3] = test: Cycloheximide-chase / VEGF-induced downregulation of VEGFR-2; assay type: cell-based
Method: FIG. 2A. Illustrated is the schematic of treatment of cells with cycloheximide (CHX) and VEGF. PAE cells co-expressing VEGFR-2 with empty vector (pMSCV) or PDCL3 were incubated with CHX for 90 minutes followed by stimulation with VEGF for indicated times. Whole cell lysates was blotted for VEGFR-2 and loading control protein, PLCγ1. FIG. 2B. Shown are the quantification of the half-life of mature VEGFR-2 and pre-mature VEGFR-2 based on the VEGFR-2 blot from the panel FIG. 2A. FIGS. 2C-2D. PAE cells co-expressing VEGFR-2 with empty vector (pMSCV) or PDCL3 were stimulated with VEGF for indicated times and whole cell lysates were processed as panel FIG. 2A.
PAE cells expressing VEGFR-2 alone or together with PDCL3 were serum-starved for overnight followed by incubation of cells with serum-free DMEM medium containing cycloheximide (20 μg/ml, 90 min). Cells then were stimulated with VEGF for various times to downregulate cell surface VEGFR-2. Cells were lysed and whole cell lysates was blotted for VEGFR-2 using anti-VEGFR-2 antibody. For measuring half-life of PDCL3 and HA-tagged mutant PDCL3, cells were incubated with serum-free DMEM medium containing cycloheximide (20 μg/ml) for indicated times and cells were lysed and whole cell lysates was blotted for PDCL3.

VEGFR-2 [4] = test: Co-immunoprecipitation with VEGFR-2 and VEGFR-2 ubiquitination blot; assay type: cell-based; conditions: HEK-293 cells co-expressing VEGFR-2
Method: as §1
Plasmids and siRNA: Human Phosducin like protein 3 cDNA (PDCL3 also called PHLP2A) (Clone #3344703, accession #BC001021) was purchased from OPEN BIOSYSTEMS and was cloned into expression vectors, pcDNA3.1/Myc-His(−) or retroviral pMSCV. Mutant PDCL3 was generated by removing the first methionine and adding HA tag and similarly was cloned into pcDNA3.1 and pMSCV vectors. […]

Molecule: C[C@H]1CCC/C=C/[C@@H]2C[C@H](O)C[C@H]2[C@H](O)/C=C/C(=O)O1 [Brefeldin A]
- binding of PDCL3 with VEGFR-2 (PDCL3 with VEGFR-2): did not inhibit the binding of PDCL3 with VEGFR-2

Molecule: [Cl][Co][Cl] [cobalt chloride]
- expression of PDCL3 and VEGFR-2 (PDCL3 and VEGFR-2): similarly increased expression of PDCL3 and VEGFR-2

Molecule: pdcl3 morpholino: PDCL3 morpholino for zebrafish, 5′CGGTGTCTGCGTTTGGGTCCTGCAT3′ (SEQ ID NO: 10), Gene Tools (all phosphorodiamidate morpholino (PMO))
- angiogenesis (intersegmental vessel formation) (zebrafish embryos): significantly inhibited angiogenesis

B1: PDCL3: 239-amino acid human phosducin-like protein 3, SEQ ID NO: 1; expressed from cDNA in cells (protein, listed as Homo sapiens)
chain: MQDPNADTEWNDILRKKGILPPKESLKELEEEAEEEQRILQQSVVKTYEDMTLEELEDHEDEFNEEDERAIEMYRRRRLAEWKATKLKNKFGEVLEISGKDYVQEVTKAGEGLWVILHLYKQGIPLCALINQHLSGLARKFPDVKFIKAISTTCIPNYPDRNLPTIFVYLEGDIKAQFIGPLVFGGMNLTRDELEWKLSESGAIMTDLEENPKKPIEDVLLSSVRRSVLMKRDSDSEGD
modifications: Myc tag in some forms
notes: expressed from cDNA in cells
- angiogenesis/capillary tube formation (PAE cells): increased angiogenesis/capillary tube formation
- aggregation of VEGFR-2 (VEGFR-2 [1]): significantly reduced aggregation of VEGFR-2 in a time-dependent manner
- expression of VEGFR-1, VEGFR-2 and CSF-1R [2]: markedly increased expression of VEGFR-1, VEGFR-2 and CSF-1R
- abundance of premature and mature forms of VEGFR-2 ([2]; different concentrations of Myc-tagged PDCL3, 48 hours): increases the abundance of premature and mature forms of VEGFR-2 in a dose-dependent manner
- half-life of newly made VEGFR-2 (VEGFR-2 [3]; PAE cells co-expressing VEGFR-2 with PDCL3): extends the half-life of newly made VEGFR-2
- VEGF-induced downregulation of mature VEGFR-2 (VEGFR-2 [3]; PAE cells, absence of cycloheximide): markedly slower

B2: acetylation resistant HA-tagged PDCL3: Mutant PDCL3 generated by removing the first methionine and adding HA tag (protein)
chain: QDPNADTEWNDILRKKGILPPKESLKELEEEAEEEQRILQQSVVKTYEDMTLEELEDHEDEFNEEDERAIEMYRRRRLAEWKATKLKNKFGEVLEISGKDYVQEVTKAGEGLWVILHLYKQGIPLCALINQHLSGLARKFPDVKFIKAISTTCIPNYPDRNLPTIFVYLEGDIKAQFIGPLVFGGMNLTRDELEWKLSESGAIMTDLEENPKKPIEDVLLSSVRRSVLMKRDSDSEGD
modifications: left off: small tags and cut ends
- interaction with VEGFR-2 (VEGFR-2 [4]): interacted strongly with VEGFR-2 compared to wild-type PDCL3
- ubiquitination of VEGFR-2 (VEGFR-2 [4]): prevented VEGFR-2 from ubiquitination
- angiogenesis/capillary tube formation (PAE cells): more robust
